Reference: the DeepSol protein solubility set

assay: soluble on expression in E. coli; label from the status in PepcDB or PDB records

| Sequence | soluble on expression in E. coli |
| --- | --- |
| MARNPRTTVRRILNSAPRSLLIQSVTIVALDPTDNNHGSHQPGSNGPSNSSTQADNFETETTADEERQKEDGVEDELEDEETTGFIDEDGEIRYPVDEVGNYEIDQEAETDESFYLDTQRDSSLCDERSQLCRSLSDQNLRTTFFLITTTNSKAAILRYLHFHNVSQDSILRKLLLNDSHLTLVEVCNLCAQNIELCKCEDMQEKCQLIFGDLKKWLEVILNSFANIMMKTKTTILEGYNSSSPINKGIFKKKLLSEMADNEMWMHFESSFDGIKVHKNGNQNIWPYSLLNLDLEDVHRASPQALILAALFIGFKNPTTKIHDRLTQWILLQMDEHVFFSEGVAWKADLTCANHDDPARRIVYNQCGLRSSGSCNFCLNQETECKINDEYTTLRENLTGSCPSTMNDGLRQRNQHSHFHKHVLYMHLCPHYSPKGNGICSRQNRWIFHQHLRFHLDFVRCPAKLHSVLVLRKHCIHGLYRLCIEPQSITDETLHLKQVLYHLARMTELYGSLFPLSTQWFEYFYHTIQRTLVPEIYNGLGMSIMRKMSALQEIKTEAAFRLHTNHQFRTEANLKMCYELGLLRRLKRISVVPTPPQYQQFCETGDVFLNVVYHDGIRYSNYCNKKTDDSNVTFIEYARVRFAKIIGMLLKENNTDLRFILKKYCNTNDHLIDISNKLYEEDVPQMHIQNWVDSVSKSSFGGRVTLTNTVVVVSADSIVGHAVVVKRNNNCVALPFSRRISLS | not soluble |
| MLEKLWPFGRSRVRKAVEEALEKAFQDVGEVLEPLSELSEHEDHYLLRVEVPGLGPENLEVRLEGDQLVIEGEKREEKRAKHLAEIVYGRIYRAYLLPKDAKKEGIEARLAKGVLEVRIPREKRPEEPPVRIPIQES | soluble |
| MGSDKIHHHHHHMQFTINHRTHYLYTDVVNYTIQKLRLTPQDGFGQRVKRWEIRVNGHLQRHDDAYGNAEHLLVLDTPHEEINILATGEVETGLDTPPAHDLLPREIYLRTTALTATDATLRNFAEQFRYDRFTGQILDEMMHAIVDKVPYYRGVTNVNTPAAEAFRSGHGVCQDHAHIFIACCRYLGIPARYVSGYLFTDDGSLMESHAWADACLPSGWISFDVSNRCRTNGVHVRLATGLDYSDACPVSGMRVGGGLETMTVGVHVSQLQSQQ | not soluble |
| MRIFPVFLLTFSLFLIKEEIVTAEVKVSAPVVNQSGIKLNLERQFTGSDVAINRIHFSPDGQFLLTAAADGVGTLWTKEGEMLGQLQGQKPPMFNARLSPDRQILITTGYDGTIRLWNLQGELLEEQQPHRAAVADAIFSPDSQIIVTCSDDGQTKIFTRQGQEIASVLKSGTARNLAYHPQGLLIASVSDSGSLHLINPNGKIEREISTGQGRINNVNFSPNGEQLLTSGINGSAKLWNLAGELIHEYKVVPTGWVNSAQFYPKGEWLATASDDGTIRFWQKDGQLIYELPLVNARLTSLSFSPDGKQLAATSSQGQVWVFNLSYLEHHHHHH | not soluble |
| MGSDKIHHHHHHMPEIHQSIAQHYHERTKYDPETIASKSQRLDWAKQPVPFKEYKIGSAIDLKPYLQETPEVFVNDTNGQWWQRLSRLLFRSYGLTARMPSMGNTVYLRAAPSAGGLYPAEVYVVSRGTPLLSPGLYNYQCRTHSLIHYWESDVWQSLQEACFWHPALESTQLAIIVTAVFYRSAWRYEDRAYRRICLDTGHLLGNIELSAAITDYRPHLIGGFIDEAVNDLLYIDPLQEGAIAVLPLADLLDIQQNISPGCTALPSATETNYPQVPDGELLKYFHHHTQISASITGKLNLPTVIQEKSLEDKYNFPFCLKISTVSAPIYWGENLSDLEITMHKRRSTRAYNGEELTFDELKALLDFTYQPQNYIDQSLDNSPDYFDLNLIETFIAVCGVQGLEAGCYYYAPKAQELRQIRFKNFRRELHFLCLGQELGRDAAAVIFHTSDLKSAIAQYGDRVYRYLHMDAGHLGQRLNLAAIQLNLGVSGIGGFFDDQVNEVLGIPNDEAVIYITTLGRPR | not soluble |
| SLSYTISRPINQLMLAMQKAESGDLTSRYEGEEQDEVGRLGRSFNTMIEQIGKLISLTERQERKKREAELHSLQANIKPHFLYNTLDTIQWMARKKNASDVADLVGALSKLFRIGLSKGGTIIPLVDEIEHIKNYLQIQSVRYKNKLNYSLVMPSNMERLSILKIVLQPIVENAIYHGIKERRGPGLITIEAERENDMLIIRIRDNGKGIKPETLQQLRTNVNLFLEKGDKEGGQRLTKGYGLINVHARLRLTFGEPYGVKIDSVFNEGTVVTIFHPILEGGVETKRA | soluble |
